From US20030044896
Numbering of substitutions follows the chain as printed.

T1: Mas-DH[K22Q]+Gly
T1 chain: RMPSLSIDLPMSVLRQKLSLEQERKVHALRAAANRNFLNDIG

T2: Mas-DH+Gly (42 amino acid precursor of Manduca sexta diuretic hormone)
T2 chain: T1 chain with Q22K

B1: Mkc7 endoprotease (encoded by MKC7) (protein)
chain: DDDYELVELTNQNSFYSVELDIGTPPQKVTVLVDTGSSDLWVTGSDNPYCSTKKKDTTGSSFKQVNKDALASVVESVFTEISYDTTIVTSEATATFDSTASTSQLIDCATYGTFNTSKSSTFNSNNTEFSIAYGDTTFASGTWGHDQLSLNDLNITGLSFAVANETNSTVGVLGIGLPGLESTYSGVSLSSVQKSYTYNNFPMVLKNSGVIKSTAYSLFANDSDSKHGTILFGAVDHGKYAGDLYTIPIINTLQHRGYKDPIQFQVTLQGLGTSKGDKEDNLTTLTTTKIPVLLDSGTTISYMPTELVKMLADQVGATYSSAYGYYIMDCIKEMEEESSIIFDFGGFYLSNWLSDFQLVTDSRSNICILGIAPQSDPTIILGDNFLANTYVVYDLDNMEISMAQANFSDDGEYIEIIESAVPSALKAPGYSSTWSTYESIVSGGNMFSTAANSSISYFASTSHSATSSSSSKGQKTQTSTTALSISKSTSSTSSTGMLSPTSSSSTRKEN
B2: Yap3 endoprotease (Yeast Aspartyl Protease 3, encoded by YAP3) (protein)
chain: ADGYEEIIITNQQSFYSVDLEVGTPPQNVTVLVDTGSSDLWIMGSDNPYCSSNSMGSSRRRVIDKRDDSSSGGSLINDINPFGWLTGTGSAIGPTATGLGGGSGTATQSVPASEATMDCQQYGTFSTSGSSTFRSNNTYFSISYGDGTFASGTFGTDVLDLSDLNVTGLSFAVANETNSTMGVLGIGLPELEVTYSGSTASHSGKAYKYDNFPIVLKNSGAIKSNTYSLYLNDSDAMHGTILFGAVDHSKYTGTLYTIPIVNTLSASGFSSPIQFDVTINGIGISDSGSSNKTLTTTKIPALLDSGTTLTYLPQTVVSMIATELGAQYSSRIGYYVLDCPSDDSMEIVFDFGGFHINAPLSSFILSTGTTCLLGIIPTSDDTGTILGDSFLTNAYVVYDLENLEISMAQARYNTTSENIEIITSSVPSAVKAPGYTNTWSTSASIVTGGNIFTVNSSQTASFSGNLTTSTASATSTSSKRN

Tests used:
Mas-DH[K22Q]+Gly = biological target: T1, Mas-DH[K22Q]+Gly
[1] = biological target: T2, Mas-DH+Gly (42 amino acid precursor of …)

Protein | proteolytic fragments recovered from culture medium of the yap3 deletion strain HKY20[pKSC3] (RPLC, ESI-MS) (Mas-DH[K22Q]+Gly) | proteolytic fragments recovered from culture medium of protease deletion strains (RPLC, ESI-MS) [1] | proteolytic fragments recovered from culture medium of the mkc7 deletion strain HKY21[pKSC3] (RPLC, ESI-MS) (Mas-DH[K22Q]+Gly)
B1 | suggesting that Mkc7 cleaved after Lys^25 | both Yap3 and Mkc7 are capable of contributing to the cleavage of Mas-DH+Gly at the Lys^22 residue, as well as at other sites | 
B2 |  | both Yap3 and Mkc7 are capable of contributing to the cleavage of Mas-DH+Gly at the Lys^22 residue, as well as at other sites | suggesting that Yap3 cleaved after Arg at the two sites E R ↓ K V and L R ↓ Q K
